“Also recorded” adds a separate entry of the source.
Key:
Assay type in all cases: cell-based
[1] = test system: 3T3-L1 fibroblasts forced to express betaKlotho; assay: Phosphorylation of FRS2 and MAPK in undifferentiated 3T3-L1 cells forced to express betaKlotho; details: 10 μM; pre-treated for 3 hours, then stimulated with FGF21
Description: A betaKlotho expression vector produced by the method described in Example 4 and an empty vector used as a control, into which betaKlotho cDNA had not been inserted, were introduced into 3T3-L1 fibroblasts cultured as described in Example 1 by a lipofection method, thereby obtaining Puromycin-resistant clones. These different types of cells were stimulated with FGF21, and 10 minutes after the stimulation, a cell lysate was prepared. The activation of FRS2 and MAPK that were signaling molecules located downstream of FGFR was examined by a Western blotting method.

[2] = target: T1, FGFR1c/betaKlotho-expressing BaF3 cells (Mus musculus, UniProt P16092+Q99N32); assay: DNA synthesis (thymidine incorporation) in FGFR1c/betaKlotho-expressing BaF3 cells; details: BaF3 cells expressing FGFR1c and betaKlotho; presence or absence of heparin
T1 construct: the entire-length cDNA of mouse FGFR1c had been cloned; the entire-length cDNA of mouse betaKlotho was cloned into an animal cell expression vector; expressed in transfected cells; host or cells: BaF3 (mouse pro-B) cells
Description: A commonly used measurement method is a cell growth stimulating activity measurement method described in Ornitz, D. M., Xu, J., Colvin, J. S., McEwen, D. G., MacArthur, C. A., Coulier, F., Gao, G. and Goldfarb, M. (1996) Receptor specificity of the fibroblast growth factor family. J Biol Chem, 271, 15292-15297. The summary thereof is as follows. FGF used as a measurement target is added to a culture solution containing a cultured cell having an FGF receptor on the surface thereof, and the obtained mixture is cultured for a certain period of time. Thereafter, a labeled thymidine is added to the culture solution, followed by further culture for a certain period of time. By measuring the amount of the labeled thymidine incorporated into polymeric DNA during the culture, the degree of FGF to activate DNA synthesis is evaluated. (In the present invention as well, this method was adopted when the activity of FGF21 was measured in Examples 4, 5, 6, 8, 9, and 10.)
FGFR1c-expressing BaF3 cells and FGFR1c- and betaKlotho-expressing BaF3 cells were prepared as follows. In the case of FGFR1c-expressing BaF3 cells, an animal cell expression vector into which the entire-length cDNA of mouse FGFR1c had been cloned (described in Ornitz, D. M., Xu, J., Colvin, J. S., McEwen, D. G., MacArthur, C. A., Coulier, F., Gao, G. and Goldfarb, M. (1996) Receptor specificity of the fibroblast growth factor family. J Biol Chem, 271, 15292-15297.) was introduced into BaF3 cells by an electroporation method. The cells were then cultured in the presence of G418 for approximately 2 weeks, so as to obtain drug-resistant clones. Thereafter, such clones were obtained as those capable of growing as a result of FGF1 stimulation. In the case of both FGFR1c- and betaKlotho-expressing BaF3 cells, the entire-length cDNA of mouse betaKlotho was cloned into an animal cell expression vector, and it was then introduced into the FGFR1c-expressing BaF3 cells. The cells were then cultured in the presence of Puromycin and G418 for approximately 2 weeks, so as to obtain drug-resistant clones. In the case of only betaKlotho-expressing BaF3 cells, a betaKlotho-expressing vector was introduced into BaF3 cells, and Puromycin-resistant clones were then obtained. The BaF3 cells, into which the aforementioned genes had been each introduced, were maintained in an RPMI1640 medium containing 10% FBS and interleukin 3 (IL3, supplied by adding a 5% condition medium of WEHI-3 cells). For the growth stimulation experiment, the cells were washed with an RPMI1640 medium, and they were then suspended in an RPMI1640 medium containing 10% FBS, followed by inoculating the suspension on a culture plate. Thereafter, the resultant cells were used.
Immediately after inoculation, BaF3 cells that had expressed each clone and only FGFR1c were stimulated by addition of FGF21 (open bar) or PBS (filled bar) used as a control in the presence of heparin, and they were then cultured for 42 hours. Thereafter, tritium-labeled thymidine was added to the culture solution, and the culture was further continued for 6 hours. Thereafter, the amount of thymidine incorporated into the cells was measured, so as to evaluate DNA synthesis. A DNA synthesis value obtained when the cells were not stimulated with FGF21 was defined as 1, and the ratio of a DNA synthesis value obtained by stimulating with FGF21 to the aforementioned DNA synthesis value was expressed using magnification. […]

[3] = target: T2, BaF3 cells that had co-expressed FGFR1c and Klotho (Mus musculus, UniProt O35082+P16092); assay: DNA synthesis in BaF3 cells co-expressing FGFR1c and Klotho; details: presence or absence of heparin
T2 construct: the entire-length cDNA of mouse FGFR1c had been cloned; expressed in transfected cells; host or cells: BaF3 (mouse pro-B) cells
Description: Specifically, BaF3 cell that had co-expressed FGFR1c and betaKlotho and BaF3 cells that had co-expressed FGFR1c and Klotho were prepared by the same transformation method and under the same culture conditions as those applied in Example 4. Thereafter, FGF21 and FGF23 were added to both types of transformed cells in the presence or absence of heparin, and the amount of DNA synthesized was then measured.

[4] = target: T3, humanized FGFR1c (hR1c)-expressing BaF3 cells (Homo sapiens, UniProt P11362); assay: DNA synthesis in humanized FGFR1c-expressing BaF3 cells; details: humanized FGFR1c only; 10 μg/ml heparin
T3 construct: expressed in transfected cells; host or cells: BaF3 (mouse pro-B) cells; pSRalpha vector
Excerpt: (§1) In Examples 4, 5, 6, and 7, it was shown that FGF21 reacts with FGFR1c in the presence of betaKlotho. FGFR1c, betaKlotho, FGF21, and the like, which were used in an actual experimental system, were all derived from mice used as typical mammalian models. With regard to these molecules, the homology between a human and a mouse at the amino acid sequence level is extremely high (80% in FGF21, 78% in betaKlotho, and 98% in FGFR1). As a result, naturally, there are no problems regarding the compatibility of the human with the mouse, and thus it is clear that the same results as those from a murine molecule will be obtained even using a humanized molecule. In the present example, as a precautionary measure, an experimental system using a humanized molecule was constructed to confirm such respect, and an experiment was carried out. Specifically, the humanized cDNA of FGFR1c and that of betaKlotho were prepared from a commercially available human RNA sample (Takara Bio Inc.) by PCR. FGFR1c was introduced into an expression vector having an SRalpha promoter (pSRalpha), and betaKlotho was introduced into an expression vector having a CMV promoter (pcDNA3.1; Invitrogen). […] In the presence of heparin, humanized FGF21 was added in various types of concentrations to FGFR1c-expressing cells or FGFR1c/betaKlotho-co-expressing cells, and the amount of DNA synthesized was then measured.

[5] = target: T4, humanized FGFR1c/humanized betaKlotho (hβKlotho)-expressing cells (Homo sapiens, UniProt P11362+Q86Z14); assay: DNA synthesis in humanized FGFR1c/humanized betaKlotho-expressing BaF3 cells; details: humanized FGFR1c and humanized betaKlotho; 10 μg/ml heparin
T4 construct: expressed in transfected cells; host or cells: BaF3 (mouse pro-B) cells; pSRalpha (FGFR1c), pcDNA3.1 (betaKlotho)
Excerpt: as §1

[6] = target: T5, humanized FGFR3c (hR3c)-expressing BaF3 cells (Homo sapiens, UniProt P22607, A441S/A461E/A470D/A499P/A500N/A559S/A717S/A734V/A765M/C582S/D512S/D516E/D576E/D580N/D722E/D758Q/D785E/DEL405-414/E426D/E447G/E729D/E768D/F566Y/F579Y/F591S/F767L/G446S/G448T/G548D/G773S/G774F/H721N/I440P/I494L/I698V/I726M/INS417HSQMAVHKLAKSI/INS423TV/INS780T/K420R/K464R/K501R/K583H/L398M/L425A/L457Y/L554I/L645I/L752V/M488L/N428S/N434G/N453G/N644H/P401G/P402T/P436L/P502V/P584N/P778R/Q611K/Q775P/R397K/R399K/R416D/R498K/R568Q/S432N/S468P/S578C/S781C/T435V/T450M/T473V/T504K/T581P/T590S/T753A/T757N/V503T/V523I/V642I/V670I/V751I/V754L); assay: DNA synthesis in humanized FGFR3c-expressing BaF3 cells; details: humanized FGFR3c only; 10 μg/ml heparin
T5 construct: expressed in transfected cells; host or cells: BaF3 (mouse pro-B) cells; pSRalpha vector
Description: (§2) The homology between human FGFR3 and mouse FGFR3 at the amino acid sequence level is 93%. […] The cDNA of humanized FGFR3c was prepared from a commercially available human RNA sample (Takara Bio Inc.) by PCR. The sequence of its intracellular portion was substituted with the sequence of humanized FGFR1, and it was then introduced into an expression vector having an SRalpha promoter (pSRalpha). The FGFR3c expression vector was introduced into BaF3 cells by an electroporation method, so as to obtain FGFR3c-expressing BaF3 cells as G418-resistant clones. In the case of FGFR3c/betaKlotho-co-expressing cells, a betaKlotho expression vector was introduced into the FGFR3c-expressing BaF3 cells, so as to obtain the aforementioned cells as Puromycin-resistant clones. In the presence of heparin, humanized FGF21 was added in various types of concentrations to FGFR3c-expressing cells or FGFR3c/betaKlotho-co-expressing cells, and the amount of DNA synthesized was then measured.

[7] = target: T6, humanized FGFR3c/humanized betaKlotho (hβKlotho)-expressing cells (Homo sapiens, UniProt P22607+Q86Z14, A441S/A461E/A470D/A499P/A500N/A559S/A717S/A734V/A765M/C582S/D512S/D516E/D576E/D580N/D722E/D758Q/D785E/DEL405-414/E426D/E447G/E729D/E768D/F566Y/F579Y/F591S/F767L/G446S/G448T/G548D/G773S/G774F/H721N/I440P/I494L/I698V/I726M/INS417HSQMAVHKLAKSI/INS423TV/INS780T/K420R/K464R/K501R/K583H/L398M/L425A/L457Y/L554I/L645I/L752V/M488L/N428S/N434G/N453G/N644H/P401G/P402T/P436L/P502V/P584N/P778R/Q611K/Q775P/R397K/R399K/R416D/R498K/R568Q/S432N/S468P/S578C/S781C/T435V/T450M/T473V/T504K/T581P/T590S/T753A/T757N/V503T/V523I/V642I/V670I/V751I/V754L); assay: DNA synthesis in humanized FGFR3c/humanized betaKlotho-expressing BaF3 cells; details: humanized FGFR3c and humanized betaKlotho; 10 μg/ml heparin
T6 construct: expressed in transfected cells; host or cells: BaF3 (mouse pro-B) cells
Description: as §2

T4 sequence (P11362 22-822): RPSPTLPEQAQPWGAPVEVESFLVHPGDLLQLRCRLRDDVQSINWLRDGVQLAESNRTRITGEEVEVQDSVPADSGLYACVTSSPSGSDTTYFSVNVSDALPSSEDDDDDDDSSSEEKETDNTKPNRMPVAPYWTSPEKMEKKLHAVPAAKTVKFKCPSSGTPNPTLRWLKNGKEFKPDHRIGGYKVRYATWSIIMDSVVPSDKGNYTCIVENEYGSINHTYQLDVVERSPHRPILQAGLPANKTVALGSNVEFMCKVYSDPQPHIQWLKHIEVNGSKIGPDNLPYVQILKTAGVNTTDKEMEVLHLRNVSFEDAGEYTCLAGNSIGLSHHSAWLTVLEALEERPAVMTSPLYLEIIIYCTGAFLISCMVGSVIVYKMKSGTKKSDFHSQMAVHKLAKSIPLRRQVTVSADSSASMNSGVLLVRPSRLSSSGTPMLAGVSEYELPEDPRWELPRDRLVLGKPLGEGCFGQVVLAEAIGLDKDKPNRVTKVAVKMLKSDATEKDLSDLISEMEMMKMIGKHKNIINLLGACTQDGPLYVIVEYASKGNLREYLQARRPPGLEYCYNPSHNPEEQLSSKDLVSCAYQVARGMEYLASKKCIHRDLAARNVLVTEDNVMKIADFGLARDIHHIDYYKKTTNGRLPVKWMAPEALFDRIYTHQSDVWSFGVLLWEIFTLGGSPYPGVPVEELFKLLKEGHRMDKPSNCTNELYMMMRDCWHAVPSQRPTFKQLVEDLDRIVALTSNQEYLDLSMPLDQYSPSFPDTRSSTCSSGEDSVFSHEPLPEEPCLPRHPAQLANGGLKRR
T4 sequence (Q86Z14 whole entry): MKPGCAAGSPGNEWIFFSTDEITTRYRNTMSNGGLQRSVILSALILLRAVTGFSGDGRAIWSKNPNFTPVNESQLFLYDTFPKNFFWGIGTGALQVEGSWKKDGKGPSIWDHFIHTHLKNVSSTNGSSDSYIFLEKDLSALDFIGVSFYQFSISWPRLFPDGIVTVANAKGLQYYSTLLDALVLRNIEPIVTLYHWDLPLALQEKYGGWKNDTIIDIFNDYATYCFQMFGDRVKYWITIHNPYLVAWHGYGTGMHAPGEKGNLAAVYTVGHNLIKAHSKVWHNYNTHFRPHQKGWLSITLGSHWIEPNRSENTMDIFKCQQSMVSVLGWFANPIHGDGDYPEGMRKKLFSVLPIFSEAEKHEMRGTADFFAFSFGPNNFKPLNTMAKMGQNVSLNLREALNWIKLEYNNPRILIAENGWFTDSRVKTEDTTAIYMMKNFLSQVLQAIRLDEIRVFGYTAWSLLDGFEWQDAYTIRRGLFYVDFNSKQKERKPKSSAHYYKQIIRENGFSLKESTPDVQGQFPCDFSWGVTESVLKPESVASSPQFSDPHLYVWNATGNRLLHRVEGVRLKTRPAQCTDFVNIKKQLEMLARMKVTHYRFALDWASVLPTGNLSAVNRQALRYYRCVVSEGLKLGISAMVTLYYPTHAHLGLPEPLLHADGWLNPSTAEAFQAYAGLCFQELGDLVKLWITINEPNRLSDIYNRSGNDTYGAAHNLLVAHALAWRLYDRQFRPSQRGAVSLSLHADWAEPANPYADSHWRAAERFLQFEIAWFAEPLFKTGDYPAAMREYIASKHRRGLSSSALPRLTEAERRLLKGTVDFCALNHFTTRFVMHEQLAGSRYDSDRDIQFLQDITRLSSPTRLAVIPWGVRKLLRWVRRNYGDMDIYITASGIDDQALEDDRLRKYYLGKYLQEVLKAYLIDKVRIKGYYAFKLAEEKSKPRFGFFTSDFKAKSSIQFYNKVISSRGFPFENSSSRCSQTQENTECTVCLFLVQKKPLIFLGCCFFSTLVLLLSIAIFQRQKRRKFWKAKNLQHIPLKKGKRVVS
T6 sequence (P22607 other isoform, or with tags, fused parts or gaps with the stated changes): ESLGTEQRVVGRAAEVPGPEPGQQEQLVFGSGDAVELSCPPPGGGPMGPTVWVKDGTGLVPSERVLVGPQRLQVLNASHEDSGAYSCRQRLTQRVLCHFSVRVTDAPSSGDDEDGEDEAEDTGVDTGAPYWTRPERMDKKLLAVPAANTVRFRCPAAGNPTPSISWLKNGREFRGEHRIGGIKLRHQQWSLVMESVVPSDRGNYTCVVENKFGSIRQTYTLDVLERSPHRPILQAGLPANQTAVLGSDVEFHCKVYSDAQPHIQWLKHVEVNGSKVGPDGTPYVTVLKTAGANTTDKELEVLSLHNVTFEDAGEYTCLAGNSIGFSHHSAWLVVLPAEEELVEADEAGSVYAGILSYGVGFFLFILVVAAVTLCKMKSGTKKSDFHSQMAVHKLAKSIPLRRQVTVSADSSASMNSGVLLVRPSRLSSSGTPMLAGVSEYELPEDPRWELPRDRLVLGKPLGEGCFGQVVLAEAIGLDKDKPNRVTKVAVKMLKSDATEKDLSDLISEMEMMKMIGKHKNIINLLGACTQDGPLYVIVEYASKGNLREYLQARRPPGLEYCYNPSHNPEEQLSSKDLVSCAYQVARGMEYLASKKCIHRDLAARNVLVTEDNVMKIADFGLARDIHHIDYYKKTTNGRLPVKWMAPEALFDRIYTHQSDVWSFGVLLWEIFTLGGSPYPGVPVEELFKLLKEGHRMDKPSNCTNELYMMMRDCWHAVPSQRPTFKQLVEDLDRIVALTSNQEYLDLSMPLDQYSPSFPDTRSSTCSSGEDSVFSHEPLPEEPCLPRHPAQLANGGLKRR
T6 sequence (Q86Z14 whole entry, stated change not applied): as the sequence (Q86Z14 whole entry) above
T3 sequence (P11362 22-822): as the sequence (P11362 22-822) above
T1 sequence (P16092 22-822): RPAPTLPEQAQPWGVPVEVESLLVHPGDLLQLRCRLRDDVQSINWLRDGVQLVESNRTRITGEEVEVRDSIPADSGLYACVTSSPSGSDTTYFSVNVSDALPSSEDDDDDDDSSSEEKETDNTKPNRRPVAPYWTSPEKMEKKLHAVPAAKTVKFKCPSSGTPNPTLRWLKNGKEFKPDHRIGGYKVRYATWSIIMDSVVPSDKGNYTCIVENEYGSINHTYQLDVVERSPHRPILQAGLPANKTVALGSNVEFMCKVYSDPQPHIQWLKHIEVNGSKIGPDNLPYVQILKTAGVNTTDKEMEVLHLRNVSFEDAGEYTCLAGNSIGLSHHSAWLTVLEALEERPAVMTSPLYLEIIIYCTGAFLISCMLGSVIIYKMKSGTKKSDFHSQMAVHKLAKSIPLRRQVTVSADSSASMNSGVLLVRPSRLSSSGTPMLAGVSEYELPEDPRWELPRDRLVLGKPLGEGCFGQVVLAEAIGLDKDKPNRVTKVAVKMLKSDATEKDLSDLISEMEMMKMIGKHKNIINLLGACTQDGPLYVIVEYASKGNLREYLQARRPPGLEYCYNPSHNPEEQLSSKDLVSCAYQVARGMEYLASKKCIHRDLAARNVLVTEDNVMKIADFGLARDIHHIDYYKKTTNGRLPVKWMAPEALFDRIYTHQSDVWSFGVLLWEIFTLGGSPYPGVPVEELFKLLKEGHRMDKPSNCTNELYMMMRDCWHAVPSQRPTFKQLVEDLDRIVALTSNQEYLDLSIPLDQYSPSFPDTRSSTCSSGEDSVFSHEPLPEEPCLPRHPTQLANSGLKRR
T1 sequence (Q99N32 whole entry): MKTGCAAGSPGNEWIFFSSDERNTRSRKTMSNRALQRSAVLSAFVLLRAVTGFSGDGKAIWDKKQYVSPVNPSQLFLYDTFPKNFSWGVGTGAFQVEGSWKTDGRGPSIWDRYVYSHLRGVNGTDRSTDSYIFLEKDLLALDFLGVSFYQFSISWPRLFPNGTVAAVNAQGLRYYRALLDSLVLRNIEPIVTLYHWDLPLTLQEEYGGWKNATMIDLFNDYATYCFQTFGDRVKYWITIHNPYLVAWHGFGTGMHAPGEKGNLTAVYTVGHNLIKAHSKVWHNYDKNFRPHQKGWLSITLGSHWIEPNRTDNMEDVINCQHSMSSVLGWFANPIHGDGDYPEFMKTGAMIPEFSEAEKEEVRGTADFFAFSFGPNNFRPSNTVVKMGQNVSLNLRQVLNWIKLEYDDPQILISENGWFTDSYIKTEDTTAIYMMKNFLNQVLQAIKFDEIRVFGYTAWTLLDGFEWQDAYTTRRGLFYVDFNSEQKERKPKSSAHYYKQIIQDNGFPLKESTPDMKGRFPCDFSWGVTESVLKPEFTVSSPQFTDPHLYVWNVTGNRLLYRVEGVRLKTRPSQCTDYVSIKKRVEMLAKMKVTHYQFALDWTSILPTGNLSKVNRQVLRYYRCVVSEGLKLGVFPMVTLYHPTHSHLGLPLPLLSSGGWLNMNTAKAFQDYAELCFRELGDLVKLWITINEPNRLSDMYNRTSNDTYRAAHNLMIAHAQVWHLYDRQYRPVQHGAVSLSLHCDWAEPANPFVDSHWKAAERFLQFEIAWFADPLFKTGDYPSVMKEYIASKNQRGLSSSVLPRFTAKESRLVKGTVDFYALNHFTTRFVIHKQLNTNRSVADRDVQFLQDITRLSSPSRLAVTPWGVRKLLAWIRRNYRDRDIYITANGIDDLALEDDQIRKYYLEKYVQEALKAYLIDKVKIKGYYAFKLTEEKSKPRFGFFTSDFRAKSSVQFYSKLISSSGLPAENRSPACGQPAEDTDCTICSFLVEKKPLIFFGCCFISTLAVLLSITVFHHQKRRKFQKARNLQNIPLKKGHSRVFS
T5 sequence (P22607 other isoform, or with tags, fused parts or gaps with the stated changes): as the sequence (P22607 other isoform, or with tags, fused parts or gaps with the stated changes) above

Cc1c[nH]c(/C=C2\C(=O)Nc3ccccc32)c1CCC(=O)O [SU5402, reference compound]
degree of phosphorylation of FRS2 and MAPK on FGF21 stimulation after inhibitor pre-treatment [1]: decreased

B1: FGF23: FGF having high structural similarity to FGF21; Klotho acts as its co-receptor (protein, UniProt Q9GZV9 25-251, looked up)
Fibroblast growth factor 23: YPNASPLLGSSWGGLIHLYTATARNSYHLQIHKNGHVDGAPHQTIYSALMIRSEDAGFVVITGVMSRRYLCMDFRGNIFGSHYFDPENCRFQHQTLENGYDVYHSPQYHFLVSLGRAKRAFLPGMNPPPYSQFLSRRNEIPLIHFNTPIPRRHTRSAEDDSERDPLNVLKPRARMTPAPASCSQELPSAEDNSPMASDPLGVVRGGRVNTHAGGTGPEGCRPFAKFI
DNA synthesis (thymidine incorporated into the cells) [2]: did not react with FGFR1c | amount of DNA synthesized [3]: able to act on FGFR1c-expressing cells

B2: humanized FGF21: FGF21 protein with human amino acid sequence, prepared in Escherichia coli from human cDNA (protein)
chain: HPIPDSSPLLQFGGQVRQRYLYTDDAQQTEAHLEIREDGTVGGAADQSPESLLQLKALKPGVIQILGVKTSRFLCQRPDGALYGSLHFDPEACSFRELLLEDGYNVYQSEAHGLPLHLPGNKSPHRDPAPRGPARFLPLPGLPPALPEPPGILAPQPPDVGSSDPLSMVGPSQGRSPSYAS
amount of DNA synthesized (thymidine incorporation) [4]: activated only the FGFR1c/betaKlotho-co-expressing cells | amount of DNA synthesized (thymidine incorporation) [5]: activated; also recorded: increased the amount of thymidine incorporated into the cells in a dose-dependent manner | amount of DNA synthesized (thymidine incorporation) [6]: activated only the FGFR3c/betaKlotho-co-expressing cells | amount of DNA synthesized (thymidine incorporation) [7]: activated; also recorded: increased the amount of thymidine incorporated into the cells in a dose-dependent manner
